# Measured values published in the supplement of paper PMC10567573.
# B1: BCL2L13 (parent)
# chain: YIIQQGGWGTVFSLESEEEEYPGI
# B2: TSPAN10 (parent)
# chain: EGCGPPLRRWLRANLAASGGYAIA
# Variants of: B1
# Experiment: protein stability index of a GFP-peptide fusion (GPS, HEK-293T) (PSI 1-6); higher = more stable
# Settings: c terminus: a fixed tail appended
# 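Further: lentivirally expressed fusions sorted by FACS into six bins by GFP to DsRed ratio, PSI derived from sequencing read proportions per bin multiplied by bin number.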
row,Variant,protein stability index
1,G9D,1.13
2,P22T,2.02
3,Y1H,3.19
4,Q4V,3.01
5,L14T,2.2
6,Q5N,1.73
7,E18D,1.96
8,G23T,2.58
9,T10I,3.06
10,G7S,1.46
11,E15T,1.67
12,Y1G,4.05
13,E17Y,3.21
14,W8C,2.31
15,Q4H,1.2
16,P22S,2.18
17,S16H,2.01
18,I3H,2.71
19,W8G,2.58
20,W8I,1.66

# Variants of: B2
# Experiment: as above
# Settings: c terminus: a fixed tail appended
row,Variant,protein stability index
1,R9H,1.58
2,A22K,1.75
3,C3T,1.7
4,A16I,1.96
5,A17T,1.4
6,R8F,1.3
7,P6V,1.89
8,G4K,2.31
9,G19I,1.93
10,G20H,2.03
11,R9P,2.54
12,C3K,1.93
13,G2R,2.04
14,R8C,1.53
15,R12H,2.47
16,A17E,2.63
17,W10Q,2.24
18,E1V,1
19,A17D,2.71
20,L15R,3.06
21,G20R,1.48
22,N14I,1.05
23,C3V,1.76
24,A13Q,2.83
25,P5R,2.48

row,Variant,protein stability index
1,P5S,1.44
2,A17Q,2.79
3,W10G,3.35
4,I23H,1.96
5,R9N,2.72
6,G4D,2.1
7,L11D,2.12
8,Y21K,3.04
9,G20C,1.56
10,L11W,1.5
11,L11T,2.89
12,P6N,2.29
13,N14R,1.74
14,A13E,3.18
15,S18W,2.06
16,A13C,2.93
17,P5Q,1.79
18,R8K,1.85
19,G20Y,1.66
20,Y21N,2.61
21,L7R,3.1
22,A16V,1.65
23,L7K,1.97
24,G2L,1.57
25,A13M,1.4

row,Variant,protein stability index
1,E1G,2
2,E1A,1.63
3,I23W,1.59
4,G19V,1.67
5,R9D,1.9
6,C3P,2.25
7,Y21F,1.85
8,G19C,1.46
9,L15H,2.62
10,W10R,3.5
11,G2Q,2.33
12,R12L,3.2
13,S18N,2.01
14,P6W,1.5
15,W10D,3.25
16,N14G,2.24
17,Y21V,2.53
18,N14K,2.81
19,Y21S,2.7
20,L11K,2.43
21,G2D,1.91
22,A22N,2.43
23,I23P,2.45
24,S18Q,2.04
25,A16W,1.45

row,Variant,protein stability index
1,G4P,2.04
2,L15I,1.93
3,P5M,1.65
4,R12Y,2.84
5,I23E,2.34
6,A17I,2.67
7,G4T,2.5
8,L7I,1.39
9,A22Q,1.63
10,I23G,2.3
11,P5C,3.5
12,G20K,2.77
13,A24I,2.22
14,G2C,1.68
15,A17G,1.59
16,E1K,1.42
17,S18D,2.71
18,P5Y,1.6
19,P6L,1.03
20,G4C,1.32
21,G19P,2.13
22,L7E,1.78
23,G19S,2.58
24,E1R,2.57
25,L15D,2.81

row,Variant,protein stability index
1,L15T,1.95
2,S18A,1.97
3,C3I,2.83
4,G4S,2.09
5,A13G,3.35
6,E1I,1.81
7,P5K,2.03
8,I23L,2.16
9,L7P,2.27
10,G2S,1.6
11,R8V,2.7
12,R8I,2.1
13,L11I,1.91
14,G2F,2.24
15,N14Q,1.39
16,A22P,1.93
17,L7H,2.39
18,G2N,1
19,R9G,1.25
20,R12S,2.58
21,W10C,2.03
22,R9Y,2.29
23,W10Y,2.44
24,G19E,1.84
25,G19M,1.24

row,Variant,protein stability index
1,Y21L,2.11
2,A22M,1.62
3,R8H,1.58
4,W10N,2.55
5,W10S,2.81
6,G20T,1.63
7,G20P,2
8,G20S,2.17
9,S18I,1.44
10,E1D,2.06
11,A22Y,2.04
12,L11C,1.68
13,G20Q,2.53
14,R8G,1.71
15,G4R,2.44
16,G19F,1.79
17,A13N,2.19
18,N14Y,1.46
19,A17M,2.2
20,A22G,1.96
21,G2W,2
22,E1W,2.07
23,L11P,2.65
24,E1P,1.71
25,R8N,1.83

row,Variant,protein stability index
1,L11V,1.82
2,G19A,1.11
3,R9K,1.79
4,E1M,2.45
5,R12I,2.82
6,S18T,2.34
7,C3R,1.4
8,R9T,1.7
9,I23Q,2.48
10,Y21I,1.81
11,A22S,1.93
12,G4N,2.06
13,P5H,1.7
14,A24K,2.15
15,S18C,2.15
16,W10L,2.42
17,Y21T,2.53
18,I23D,2.35
19,G2T,1.83
20,G4A,1.54
21,S18M,1.6
22,E1Q,1.38
23,G4I,2.28
24,G20F,1.96
25,G20N,3.44

row,Variant,protein stability index
1,E1C,3.75
2,A16C,1.78
3,G19R,2.33
4,I23S,2.63
5,L11R,2.56
6,A16R,1.68
7,A24H,1.68
8,A17K,1.7
9,P6E,1.48
10,L7G,1.82
11,W10H,2.53
12,Y21P,2.07
13,R8Q,2.05
14,L7M,2.39
15,A24F,1.48
16,A24E,2.92
17,P5V,2.15
18,G20W,1.84
19,L15Q,3.2
20,Y21M,2.17
21,N14A,2.3
22,G19H,2.32
23,W10I,2.94
24,R8P,1.46
25,C3Q,3.09

row,Variant,protein stability index
1,L15E,2.96
2,L11F,1.03
3,S18V,2.16
4,G2Y,1.69
5,L7W,2.05
6,R9E,2.28
7,G4H,2.58
8,C3H,2.62
9,I23F,2.17
10,S18Y,1.4
11,A13F,2.46
12,A22I,1.03
13,A24Q,2.6
14,C3D,2.37
15,C3S,2.45
16,L15P,2.14
17,G19D,2.11
18,A22E,2.28
19,S18L,2.19
20,P6G,1.86
21,N14P,2.06
22,A24S,1.98
23,A16Q,1.57
24,I23C,2.15
25,R12T,1.82

row,Variant,protein stability index
1,L11G,1.74
2,G4F,1.27
3,A16S,1.68
4,Y21H,2.39
5,S18R,1.8
6,R8T,1.71
7,G20L,1.96
8,A22C,1.38
9,G2V,1.53
10,P5F,2.73
11,G19T,1.74
12,Y21W,1.47
13,A16K,2.31
14,A13D,1.83
15,A17S,1.84
16,R8E,1.26
17,L15G,2.59
18,G19Q,1.43
19,G2K,2.32
20,L15S,2.94
21,G2H,2.07
22,L15C,1.49
23,A24V,1.67
24,A17C,1.39
25,R8L,1.37

row,Variant,protein stability index
1,L7Q,1.36
2,C3M,1.78
3,P5A,2.08
4,R12K,2.92
5,N14H,2.48
6,L15N,2.28
7,N14L,1.02
8,R8M,2.16
9,R8S,1.7
10,S18K,1.61
11,A24N,2.27
12,L11E,2.57
13,W10P,3.39
14,E1Y,1.97
15,N14S,1.93
16,L15Y,1.92
17,G4Q,2
18,A22L,2.06
19,G4E,1.98
20,P6Q,1.89
21,R9M,1.65
22,P5E,3.75
23,A17N,2.96
24,A22V,2.8
25,R9A,1.55

row,Variant,protein stability index
1,W10A,3.63
2,R12P,2.5
3,A24Y,1.16
4,N14T,1.86
5,G19K,1.89
6,C3W,1.72
7,A17L,1.63
8,L7C,1.87
9,A24C,2.02
10,G2A,2
11,Y21A,2.65
12,P6H,1.62
13,R12N,1.73
14,L15F,1.58
15,L7T,2.97
16,R9Q,1.81
17,G19N,2.13
18,A13P,2.87
19,S18G,1.98
20,Y21D,2.61
21,S18E,1.75
22,L11S,2.61
23,P6M,1.84
24,A16G,1.71
25,G20A,1.94

row,Variant,protein stability index
1,R8W,1.31
2,C3F,1.61
3,P6S,1.72
4,A17P,1.81
5,I23M,1.21
6,L15A,2.36
7,Y21Q,2.75
8,R12D,1.8
9,C3L,2.65
10,Y21G,2.11
11,N14D,1.86
12,I23K,2.96
13,G20E,2.33
14,E1T,1.39
